In patent publication US20150087577A1 (POLYPHOR, published 2015):
Bridges are numbered along the chain shown (N, C = ends). [ ]: non-standard residue; d: D form. 2Nal = N[C@@H](Cc1ccc2ccccc2c1)C(=O)O; Cit = NC(=O)NCCC[C@H](N)C(=O)O

Target: human CXCR4 (human, UniProt P61073 1-352)
Test: cell-based or functional assay

Sequence of human CXCR4 (P61073 whole entry): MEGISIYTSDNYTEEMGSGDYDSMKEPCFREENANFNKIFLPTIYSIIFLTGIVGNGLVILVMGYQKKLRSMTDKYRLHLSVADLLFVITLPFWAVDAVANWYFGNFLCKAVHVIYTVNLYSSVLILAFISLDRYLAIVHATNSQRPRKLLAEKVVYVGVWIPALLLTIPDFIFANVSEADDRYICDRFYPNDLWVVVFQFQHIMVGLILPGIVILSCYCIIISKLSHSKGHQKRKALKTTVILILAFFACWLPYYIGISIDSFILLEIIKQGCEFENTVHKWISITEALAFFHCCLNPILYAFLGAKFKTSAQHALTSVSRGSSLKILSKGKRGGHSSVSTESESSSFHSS

Row | IC50 (nM) Ca2+ assay (method 2) | IC50 (nM) Ca2+ assay (method 1) | Binder
1 | 3.7 nM | – | cyclo(YR[Cit]CRG[dP]RR[2Nal]CYMK[dP]P) (disulfide 4-11; SMILES CSCC[C@@H]1NC(=O)[C@H](Cc2ccc(O)cc2)NC(=O)[C@@H]2CSSC[C@H](NC(=O)[C@H](CCCNC(N)=O)NC(=O)[C@H](CCCNC(=N)N)NC(=O)[C@H](Cc3ccc(O)cc3)NC(=O)[C@@H]3CCCN3C(=O)[C@H]3CCCN3C(=O)[C@H](CCCCN)NC1=O)C(=O)N[C@@H](CCCNC(=N)N)C(=O)NCC(=O)N1CCC[C@@H]1C(=O)N[C@@H](CCCNC(=N)N)C(=O)N[C@@H](CCCNC(=N)N)C(=O)N[C@@H](Cc1ccc3ccccc3c1)C(=O)N2) [Example 83]
2 | 11 nM | – | cyclo(YR[Cit]CRG[dP]RR[2Nal]CYDK[dP]P) (disulfide 4-11; SMILES N=C(N)NCCC[C@@H]1NC(=O)[C@@H]2CSSC[C@H](NC(=O)[C@H](Cc3ccc4ccccc4c3)NC(=O)[C@H](CCCNC(=N)N)NC(=O)[C@H](CCCNC(=N)N)NC(=O)[C@H]3CCCN3C(=O)CNC1=O)C(=O)N[C@@H](Cc1ccc(O)cc1)C(=O)N[C@@H](CC(=O)O)C(=O)N[C@@H](CCCCN)C(=O)N1CCC[C@@H]1C(=O)N1CCC[C@H]1C(=O)N[C@@H](Cc1ccc(O)cc1)C(=O)N[C@@H](CCCNC(=N)N)C(=O)N[C@@H](CCCNC(N)=O)C(=O)N2) [Example 78]
3 | 3.5 nM | – | cyclo(YR[Cit]CRG[dP]RR[2Nal]CYQS[dP]P) (disulfide 4-11; SMILES N=C(N)NCCC[C@@H]1NC(=O)[C@@H]2CSSC[C@H](NC(=O)[C@H](Cc3ccc4ccccc4c3)NC(=O)[C@H](CCCNC(=N)N)NC(=O)[C@H](CCCNC(=N)N)NC(=O)[C@H]3CCCN3C(=O)CNC1=O)C(=O)N[C@@H](Cc1ccc(O)cc1)C(=O)N[C@@H](CCC(N)=O)C(=O)N[C@@H](CO)C(=O)N1CCC[C@@H]1C(=O)N1CCC[C@H]1C(=O)N[C@@H](Cc1ccc(O)cc1)C(=O)N[C@@H](CCCNC(=N)N)C(=O)N[C@@H](CCCNC(N)=O)C(=O)N2) [Example 87]
4 | 2.7 nM | – | cyclo(YR[Cit]CRG[dP]RR[2Nal]CYQD[dP]P) (disulfide 4-11; SMILES N=C(N)NCCC[C@@H]1NC(=O)[C@@H]2CSSC[C@H](NC(=O)[C@H](Cc3ccc4ccccc4c3)NC(=O)[C@H](CCCNC(=N)N)NC(=O)[C@H](CCCNC(=N)N)NC(=O)[C@H]3CCCN3C(=O)CNC1=O)C(=O)N[C@@H](Cc1ccc(O)cc1)C(=O)N[C@@H](CCC(N)=O)C(=O)N[C@@H](CC(=O)O)C(=O)N1CCC[C@@H]1C(=O)N1CCC[C@H]1C(=O)N[C@@H](Cc1ccc(O)cc1)C(=O)N[C@@H](CCCNC(=N)N)C(=O)N[C@@H](CCCNC(N)=O)C(=O)N2) [Example 85]
5 | 2.4 nM | – | cyclo(YR[Cit]CRG[dP]RR[2Nal]CYKK[dP]P) (disulfide 4-11; SMILES N=C(N)NCCC[C@@H]1NC(=O)[C@@H]2CSSC[C@H](NC(=O)[C@H](Cc3ccc4ccccc4c3)NC(=O)[C@H](CCCNC(=N)N)NC(=O)[C@H](CCCNC(=N)N)NC(=O)[C@H]3CCCN3C(=O)CNC1=O)C(=O)N[C@@H](Cc1ccc(O)cc1)C(=O)N[C@@H](CCCCN)C(=O)N[C@@H](CCCCN)C(=O)N1CCC[C@@H]1C(=O)N1CCC[C@H]1C(=O)N[C@@H](Cc1ccc(O)cc1)C(=O)N[C@@H](CCCNC(=N)N)C(=O)N[C@@H](CCCNC(N)=O)C(=O)N2) [Example 79]
6 | 2.5 nM | – | cyclo(DR[Cit]CRG[dP]RR[2Nal]CYQK[dP]P) (disulfide 4-11; SMILES N=C(N)NCCC[C@@H]1NC(=O)[C@@H]2CSSC[C@H](NC(=O)[C@H](Cc3ccc4ccccc4c3)NC(=O)[C@H](CCCNC(=N)N)NC(=O)[C@H](CCCNC(=N)N)NC(=O)[C@H]3CCCN3C(=O)CNC1=O)C(=O)N[C@@H](Cc1ccc(O)cc1)C(=O)N[C@@H](CCC(N)=O)C(=O)N[C@@H](CCCCN)C(=O)N1CCC[C@@H]1C(=O)N1CCC[C@H]1C(=O)N[C@@H](CC(=O)O)C(=O)N[C@@H](CCCNC(=N)N)C(=O)N[C@@H](CCCNC(N)=O)C(=O)N2) [Example 88]
7 | 7 nM | – | cyclo(YR[Cit]CRG[dP]RR[2Nal]CYNK[dP]P) (disulfide 4-11; SMILES N=C(N)NCCC[C@@H]1NC(=O)[C@@H]2CSSC[C@H](NC(=O)[C@H](Cc3ccc4ccccc4c3)NC(=O)[C@H](CCCNC(=N)N)NC(=O)[C@H](CCCNC(=N)N)NC(=O)[C@H]3CCCN3C(=O)CNC1=O)C(=O)N[C@@H](Cc1ccc(O)cc1)C(=O)N[C@@H](CC(N)=O)C(=O)N[C@@H](CCCCN)C(=O)N1CCC[C@@H]1C(=O)N1CCC[C@H]1C(=O)N[C@@H](Cc1ccc(O)cc1)C(=O)N[C@@H](CCCNC(=N)N)C(=O)N[C@@H](CCCNC(N)=O)C(=O)N2) [Example 77]
8 | 2.9 nM | – | cyclo(YR[Cit]CRG[dP]RR[2Nal]CYAK[dP]P) (disulfide 4-11; SMILES C[C@@H]1NC(=O)[C@H](Cc2ccc(O)cc2)NC(=O)[C@@H]2CSSC[C@H](NC(=O)[C@H](CCCNC(N)=O)NC(=O)[C@H](CCCNC(=N)N)NC(=O)[C@H](Cc3ccc(O)cc3)NC(=O)[C@@H]3CCCN3C(=O)[C@H]3CCCN3C(=O)[C@H](CCCCN)NC1=O)C(=O)N[C@@H](CCCNC(=N)N)C(=O)NCC(=O)N1CCC[C@@H]1C(=O)N[C@@H](CCCNC(=N)N)C(=O)N[C@@H](CCCNC(=N)N)C(=O)N[C@@H](Cc1ccc3ccccc3c1)C(=O)N2) [Example 80]
9 | 4.8 nM | – | cyclo(YR[Cit]CRG[dP]RR[2Nal]CYLK[dP]P) (disulfide 4-11; SMILES CC(C)C[C@@H]1NC(=O)[C@H](Cc2ccc(O)cc2)NC(=O)[C@@H]2CSSC[C@H](NC(=O)[C@H](CCCNC(N)=O)NC(=O)[C@H](CCCNC(=N)N)NC(=O)[C@H](Cc3ccc(O)cc3)NC(=O)[C@@H]3CCCN3C(=O)[C@H]3CCCN3C(=O)[C@H](CCCCN)NC1=O)C(=O)N[C@@H](CCCNC(=N)N)C(=O)NCC(=O)N1CCC[C@@H]1C(=O)N[C@@H](CCCNC(=N)N)C(=O)N[C@@H](CCCNC(=N)N)C(=O)N[C@@H](Cc1ccc3ccccc3c1)C(=O)N2) [Example 82]
10 | 0.5 nM | – | cyclo(SR[Cit]CRG[dP]RR[2Nal]CYQK[dP]P) (disulfide 4-11; SMILES N=C(N)NCCC[C@@H]1NC(=O)[C@@H]2CSSC[C@H](NC(=O)[C@H](Cc3ccc4ccccc4c3)NC(=O)[C@H](CCCNC(=N)N)NC(=O)[C@H](CCCNC(=N)N)NC(=O)[C@H]3CCCN3C(=O)CNC1=O)C(=O)N[C@@H](Cc1ccc(O)cc1)C(=O)N[C@@H](CCC(N)=O)C(=O)N[C@@H](CCCCN)C(=O)N1CCC[C@@H]1C(=O)N1CCC[C@H]1C(=O)N[C@@H](CO)C(=O)N[C@@H](CCCNC(=N)N)C(=O)N[C@@H](CCCNC(N)=O)C(=O)N2) [Example 89]
11 | 0.69 nM | – | cyclo(YR[Cit]CRG[dP]RR[2Nal]CYQA[dP]P) (disulfide 4-11; SMILES C[C@@H]1NC(=O)[C@H](CCC(N)=O)NC(=O)[C@H](Cc2ccc(O)cc2)NC(=O)[C@@H]2CSSC[C@H](NC(=O)[C@H](CCCNC(N)=O)NC(=O)[C@H](CCCNC(=N)N)NC(=O)[C@H](Cc3ccc(O)cc3)NC(=O)[C@@H]3CCCN3C(=O)[C@H]3CCCN3C1=O)C(=O)N[C@@H](CCCNC(=N)N)C(=O)NCC(=O)N1CCC[C@@H]1C(=O)N[C@@H](CCCNC(=N)N)C(=O)N[C@@H](CCCNC(=N)N)C(=O)N[C@@H](Cc1ccc3ccccc3c1)C(=O)N2) [Example 86]
12 | 3.9 nM | – | cyclo(YR[Cit]CRG[dP]RR[2Nal]CYQN[dP]P) (disulfide 4-11; SMILES N=C(N)NCCC[C@@H]1NC(=O)[C@@H]2CSSC[C@H](NC(=O)[C@H](Cc3ccc4ccccc4c3)NC(=O)[C@H](CCCNC(=N)N)NC(=O)[C@H](CCCNC(=N)N)NC(=O)[C@H]3CCCN3C(=O)CNC1=O)C(=O)N[C@@H](Cc1ccc(O)cc1)C(=O)N[C@@H](CCC(N)=O)C(=O)N[C@@H](CC(N)=O)C(=O)N1CCC[C@@H]1C(=O)N1CCC[C@H]1C(=O)N[C@@H](Cc1ccc(O)cc1)C(=O)N[C@@H](CCCNC(=N)N)C(=O)N[C@@H](CCCNC(N)=O)C(=O)N2) [Example 84]
13 | – | 1930 nM | cyclo(YR[Cit]VRRR[2Nal]VY[Cit]K[dP]P) (SMILES CC(C)[C@@H]1NC(=O)[C@H](CCCNC(N)=O)NC(=O)[C@H](CCCNC(=N)N)NC(=O)[C@H](Cc2ccc(O)cc2)NC(=O)[C@@H]2CCCN2C(=O)[C@H]2CCCN2C(=O)[C@H](CCCCN)NC(=O)[C@H](CCCNC(N)=O)NC(=O)[C@H](Cc2ccc(O)cc2)NC(=O)[C@H](C(C)C)NC(=O)[C@H](Cc2ccc3ccccc3c2)NC(=O)[C@H](CCCNC(=N)N)NC(=O)[C@H](CCCNC(=N)N)NC(=O)[C@H](CCCNC(=N)N)NC1=O) [Example 6]
14 | 4.9 nM | – | cyclo(YR[Cit]CRG[dP]RR[2Nal]CYSK[dP]P) (disulfide 4-11; SMILES N=C(N)NCCC[C@@H]1NC(=O)[C@@H]2CSSC[C@H](NC(=O)[C@H](Cc3ccc4ccccc4c3)NC(=O)[C@H](CCCNC(=N)N)NC(=O)[C@H](CCCNC(=N)N)NC(=O)[C@H]3CCCN3C(=O)CNC1=O)C(=O)N[C@@H](Cc1ccc(O)cc1)C(=O)N[C@@H](CO)C(=O)N[C@@H](CCCCN)C(=O)N1CCC[C@@H]1C(=O)N1CCC[C@H]1C(=O)N[C@@H](Cc1ccc(O)cc1)C(=O)N[C@@H](CCCNC(=N)N)C(=O)N[C@@H](CCCNC(N)=O)C(=O)N2) [Example 81]
